Data from US20240238380A1 (YUHAN, published 2024).

Target: GFRAL/RET overexpressed on HEK293 cells (GFRAL/RET/SRE-luc-overexpressing HEK293 cell line) (UniProt Q6UXV0 19-394; P07949 29-1114, limits assumed)
Test: cell-based or functional assay

Sequence of GFRAL/RET overexpressed on HEK293 cells (GFRAL/RET/SRE-luc-overexpressing HEK293 cell line) (Q6UXV0 19-394 limits assumed, chain 1 of 2): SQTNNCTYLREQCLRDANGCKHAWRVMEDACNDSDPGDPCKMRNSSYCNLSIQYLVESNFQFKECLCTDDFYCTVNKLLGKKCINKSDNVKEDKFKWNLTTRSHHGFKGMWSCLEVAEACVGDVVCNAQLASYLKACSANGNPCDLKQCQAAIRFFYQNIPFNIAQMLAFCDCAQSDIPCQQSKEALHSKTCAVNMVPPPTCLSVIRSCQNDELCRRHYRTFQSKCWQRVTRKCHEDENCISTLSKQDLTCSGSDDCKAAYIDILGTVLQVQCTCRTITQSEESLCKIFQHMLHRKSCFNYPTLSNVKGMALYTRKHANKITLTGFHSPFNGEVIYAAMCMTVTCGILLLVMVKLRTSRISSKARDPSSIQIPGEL
Sequence of GFRAL/RET overexpressed on HEK293 cells (GFRAL/RET/SRE-luc-overexpressing HEK293 cell line) (P07949 29-1114 limits assumed, chain 2 of 2): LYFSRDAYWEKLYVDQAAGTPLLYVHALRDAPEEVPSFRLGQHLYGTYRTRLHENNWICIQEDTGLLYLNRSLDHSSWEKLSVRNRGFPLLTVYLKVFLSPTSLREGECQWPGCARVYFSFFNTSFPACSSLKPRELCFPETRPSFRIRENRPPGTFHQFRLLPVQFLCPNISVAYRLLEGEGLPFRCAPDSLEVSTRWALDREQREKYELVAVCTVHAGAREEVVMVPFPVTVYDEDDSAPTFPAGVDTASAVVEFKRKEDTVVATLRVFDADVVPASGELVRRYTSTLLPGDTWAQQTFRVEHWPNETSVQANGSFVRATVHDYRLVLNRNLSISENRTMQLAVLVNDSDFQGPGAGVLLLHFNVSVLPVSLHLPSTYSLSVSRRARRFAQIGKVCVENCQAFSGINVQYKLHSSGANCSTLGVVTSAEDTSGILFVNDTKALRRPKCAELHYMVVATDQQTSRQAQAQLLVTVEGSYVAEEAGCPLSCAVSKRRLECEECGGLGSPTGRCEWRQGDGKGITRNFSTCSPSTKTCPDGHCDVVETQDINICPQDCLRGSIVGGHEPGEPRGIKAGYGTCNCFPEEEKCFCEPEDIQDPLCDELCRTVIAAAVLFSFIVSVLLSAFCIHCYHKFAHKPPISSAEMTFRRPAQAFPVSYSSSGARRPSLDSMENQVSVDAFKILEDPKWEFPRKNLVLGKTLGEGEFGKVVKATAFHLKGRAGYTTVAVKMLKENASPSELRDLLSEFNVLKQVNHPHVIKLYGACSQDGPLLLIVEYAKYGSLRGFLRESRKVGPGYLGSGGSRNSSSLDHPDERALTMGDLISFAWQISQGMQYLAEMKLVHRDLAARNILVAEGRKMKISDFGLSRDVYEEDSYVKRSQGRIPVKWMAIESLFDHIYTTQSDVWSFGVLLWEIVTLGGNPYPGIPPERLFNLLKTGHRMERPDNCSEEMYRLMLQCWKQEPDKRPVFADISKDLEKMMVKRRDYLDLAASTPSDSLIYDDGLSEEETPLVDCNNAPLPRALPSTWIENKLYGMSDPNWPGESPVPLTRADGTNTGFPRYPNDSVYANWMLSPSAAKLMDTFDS

EC50 (nM), SRE-luciferase reporter (RLU) [nM] | Emax (%), SRE-luciferase reporter (RLU), relative to FM9-6+Fc_hole [%] | Binder
45.4 | 105 | FM11-4 + Fc_hole long-acting GDF15 fusion protein (dimer) (Fc fusion) chain 1: APEAAGGPSVFLFPPKPKDTLMISRTPEVTCVVVDVSHEDPEVKFNWYVDGVEVHNAKTKPREEQYASTYRVVSVLTVLHQDWLNGKEYKCKVSNKALPAPIEKTISKAKGQPREPQVYTLPPSREEMTKNQVSLWCLVKGFYPSDIAVEWESNGQPENNYKTTPPVLDSDGSFFLYSKLTVDKSRWQQGNVFSCSVMHEALHNHYTQKSLSLSPGKGSEEEAEEEAEEEAEEEAEEEAEEEANSTCPLGPGRCCRLHTVRASLEDLGWADWVLSPREVQVTMCIGACPSQFRAANMHAQIKTRLHRLKPDTVPAPCCVPASYNPMVLIQKTDTGVSLQTYDDLLAKDCHCI chain 2: APEAAGGPSVFLFPPKPKDTLMISRTPEVTCVVVDVSHEDPEVKFNWYVDGVEVHNAKTKPREEQYASTYRVVSVLTVLHQDWLNGKEYKCKVSNKALPAPIEKTISKAKGQPREPQVYTLPPSREEMTKNQVSLSCAVKGFYPSDIAVEWESNGQPENNYKTTPPVLDSDGSFFLVSKLTVDKSRWQQGNVFSCSVMHEALHNHYTQKSLSLSPGK
5.1 | 68.2 | FM11-5 + Fc_hole long-acting GDF15 fusion protein (dimer) (Fc fusion) chain 1: APEAAGGPSVFLFPPKPKDTLMISRTPEVTCVVVDVSHEDPEVKFNWYVDGVEVHNAKTKPREEQYASTYRVVSVLTVLHQDWLNGKEYKCKVSNKALPAPIEKTISKAKGQPREPQVYTLPPSREEMTKNQVSLWCLVKGFYPSDIAVEWESNGQPENNYKTTPPVLDSDGSFFLYSKLTVDKSRWQQGNVFSCSVMHEALHNHYTQKSLSLSPGKGSGGSSPTPTPTPTPTPTPTPTPTPTNSTCPLGPGRCCRLHTVRASLEDLGWADWVLSPREVQVTMCIGACPSQFRAANMHAQIKTRLHRLKPDTVPAPCCVPASYNPMVLIQKTDTGVSLQTYDDLLAKDCHCI chain 2: APEAAGGPSVFLFPPKPKDTLMISRTPEVTCVVVDVSHEDPEVKFNWYVDGVEVHNAKTKPREEQYASTYRVVSVLTVLHQDWLNGKEYKCKVSNKALPAPIEKTISKAKGQPREPQVYTLPPSREEMTKNQVSLSCAVKGFYPSDIAVEWESNGQPENNYKTTPPVLDSDGSFFLVSKLTVDKSRWQQGNVFSCSVMHEALHNHYTQKSLSLSPGK
6.8 | 80.3 | FM11-6 + Fc_hole long-acting GDF15 fusion protein (dimer) (Fc fusion) chain 1: APEAAGGPSVFLFPPKPKDTLMISRTPEVTCVVVDVSHEDPEVKFNWYVDGVEVHNAKTKPREEQYASTYRVVSVLTVLHQDWLNGKEYKCKVSNKALPAPIEKTISKAKGQPREPQVYTLPPSREEMTKNQVSLWCLVKGFYPSDIAVEWESNGQPENNYKTTPPVLDSDGSFFLYSKLTVDKSRWQQGNVFSCSVMHEALHNHYTQKSLSLSPGKGSEAAAKEAAAKEAAAKEAAAKEAAAKNSTCPLGPGRCCRLHTVRASLEDLGWADWVLSPREVQVTMCIGACPSQFRAANMHAQIKTRLHRLKPDTVPAPCCVPASYNPMVLIQKTDTGVSLQTYDDLLAKDCHCI chain 2: APEAAGGPSVFLFPPKPKDTLMISRTPEVTCVVVDVSHEDPEVKFNWYVDGVEVHNAKTKPREEQYASTYRVVSVLTVLHQDWLNGKEYKCKVSNKALPAPIEKTISKAKGQPREPQVYTLPPSREEMTKNQVSLSCAVKGFYPSDIAVEWESNGQPENNYKTTPPVLDSDGSFFLVSKLTVDKSRWQQGNVFSCSVMHEALHNHYTQKSLSLSPGK
7.7 | 79.4 | FM11-2 + Fc_hole long-acting GDF15 fusion protein (dimer) (Fc fusion) chain 1: APEAAGGPSVFLFPPKPKDTLMISRTPEVTCVVVDVSHEDPEVKFNWYVDGVEVHNAKTKPREEQYASTYRVVSVLTVLHQDWLNGKEYKCKVSNKALPAPIEKTISKAKGQPREPQVYTLPPSREEMTKNQVSLWCLVKGFYPSDIAVEWESNGQPENNYKTTPPVLDSDGSFFLYSKLTVDKSRWQQGNVFSCSVMHEALHNHYTQKSLSLSPGKGSGGGGSGGGGSGGGGSGGGGSGGGGSNSTCPLGPGRCCRLHTVRASLEDLGWADWVLSPREVQVTMCIGACPSQFRAANMHAQIKTRLHRLKPDTVPAPCCVPASYNPMVLIQKTDTGVSLQTYDDLLAKDCHCI chain 2: APEAAGGPSVFLFPPKPKDTLMISRTPEVTCVVVDVSHEDPEVKFNWYVDGVEVHNAKTKPREEQYASTYRVVSVLTVLHQDWLNGKEYKCKVSNKALPAPIEKTISKAKGQPREPQVYTLPPSREEMTKNQVSLSCAVKGFYPSDIAVEWESNGQPENNYKTTPPVLDSDGSFFLVSKLTVDKSRWQQGNVFSCSVMHEALHNHYTQKSLSLSPGK
7.8 | 81 | FM11-3 + Fc_hole long-acting GDF15 fusion protein (dimer) (Fc fusion) chain 1: APEAAGGPSVFLFPPKPKDTLMISRTPEVTCVVVDVSHEDPEVKFNWYVDGVEVHNAKTKPREEQYASTYRVVSVLTVLHQDWLNGKEYKCKVSNKALPAPIEKTISKAKGQPREPQVYTLPPSREEMTKNQVSLWCLVKGFYPSDIAVEWESNGQPENNYKTTPPVLDSDGSFFLYSKLTVDKSRWQQGNVFSCSVMHEALHNHYTQKSLSLSPGKGSGGGGSGGGGSGGGGSGGGGSGGGGSGGGGSGGGGSNSTCPLGPGRCCRLHTVRASLEDLGWADWVLSPREVQVTMCIGACPSQFRAANMHAQIKTRLHRLKPDTVPAPCCVPASYNPMVLIQKTDTGVSLQTYDDLLAKDCHCI chain 2: APEAAGGPSVFLFPPKPKDTLMISRTPEVTCVVVDVSHEDPEVKFNWYVDGVEVHNAKTKPREEQYASTYRVVSVLTVLHQDWLNGKEYKCKVSNKALPAPIEKTISKAKGQPREPQVYTLPPSREEMTKNQVSLSCAVKGFYPSDIAVEWESNGQPENNYKTTPPVLDSDGSFFLVSKLTVDKSRWQQGNVFSCSVMHEALHNHYTQKSLSLSPGK

More lines, now with the values behind:

Binder | EC50 (nM), SRE-luciferase reporter (RLU) [nM] | Emax (%), SRE-luciferase reporter (RLU), relative to FM9-6+Fc_hole [%]
FM9-1 + Fc_hole long-acting GDF15 fusion protein (dimer) (Fc fusion) chain 1: APEAAGGPSVFLFPPKPKDTLMISRTPEVTCVVVDVSHEDPEVKFNWYVDGVEVHNAKTKPREEQYASTYRVVSVLTVLHQDWLNGKEYKCKVSNKALPAPIEKTISKAKGQPREPQVYTLPPSREEMTKNQVSLWCLVKGFYPSDIAVEWESNGQPENNYKTTPPVLDSDGSFFLYSKLTVDKSRWQQGNVFSCSVMHEALHNHYTQKSLSLSPGKGSGGGGSGGGGSGGGGSNGDHCPLGPGRCCRLHTVRASLEDLGWADWVLSPREVQVTMCIGACPSQFRAANMHAQIKTRLHRLKPDTVPAPCCVPASYNPMVLIQKTDTGVSLQTYDDLLAKDCHCI chain 2: APEAAGGPSVFLFPPKPKDTLMISRTPEVTCVVVDVSHEDPEVKFNWYVDGVEVHNAKTKPREEQYASTYRVVSVLTVLHQDWLNGKEYKCKVSNKALPAPIEKTISKAKGQPREPQVYTLPPSREEMTKNQVSLSCAVKGFYPSDIAVEWESNGQPENNYKTTPPVLDSDGSFFLVSKLTVDKSRWQQGNVFSCSVMHEALHNHYTQKSLSLSPGK | 9 | 97.6
FM11-1 + Fc_hole long-acting GDF15 fusion protein (dimer) (Fc fusion) chain 1: APEAAGGPSVFLFPPKPKDTLMISRTPEVTCVVVDVSHEDPEVKFNWYVDGVEVHNAKTKPREEQYASTYRVVSVLTVLHQDWLNGKEYKCKVSNKALPAPIEKTISKAKGQPREPQVYTLPPSREEMTKNQVSLWCLVKGFYPSDIAVEWESNGQPENNYKTTPPVLDSDGSFFLYSKLTVDKSRWQQGNVFSCSVMHEALHNHYTQKSLSLSPGKGSGGGGSGGGGSGGGGSNSTCPLGPGRCCRLHTVRASLEDLGWADWVLSPREVQVTMCIGACPSQFRAANMHAQIKTRLHRLKPDTVPAPCCVPASYNPMVLIQKTDTGVSLQTYDDLLAKDCHCI chain 2: APEAAGGPSVFLFPPKPKDTLMISRTPEVTCVVVDVSHEDPEVKFNWYVDGVEVHNAKTKPREEQYASTYRVVSVLTVLHQDWLNGKEYKCKVSNKALPAPIEKTISKAKGQPREPQVYTLPPSREEMTKNQVSLSCAVKGFYPSDIAVEWESNGQPENNYKTTPPVLDSDGSFFLVSKLTVDKSRWQQGNVFSCSVMHEALHNHYTQKSLSLSPGK | 9.7 | 65.6
FM9-5 + Fc_hole long-acting GDF15 fusion protein (dimer) (Fc fusion) chain 1: APEAAGGPSVFLFPPKPKDTLMISRTPEVTCVVVDVSHEDPEVKFNWYVDGVEVHNAKTKPREEQYASTYRVVSVLTVLHQDWLNGKEYKCKVSNKALPAPIEKTISKAKGQPREPQVYTLPPSREEMTKNQVSLWCLVKGFYPSDIAVEWESNGQPENNYKTTPPVLDSDGSFFLYSKLTVDKSRWQQGNVFSCSVMHEALHNHYTQKSLSLSPGKGSGGSSPTPTPTPTPTPTPTPTPTPTNGDHCPLGPGRCCRLHTVRASLEDLGWADWVLSPREVQVTMCIGACPSQFRAANMHAQIKTRLHRLKPDTVPAPCCVPASYNPMVLIQKTDTGVSLQTYDDLLAKDCHCI chain 2: APEAAGGPSVFLFPPKPKDTLMISRTPEVTCVVVDVSHEDPEVKFNWYVDGVEVHNAKTKPREEQYASTYRVVSVLTVLHQDWLNGKEYKCKVSNKALPAPIEKTISKAKGQPREPQVYTLPPSREEMTKNQVSLSCAVKGFYPSDIAVEWESNGQPENNYKTTPPVLDSDGSFFLVSKLTVDKSRWQQGNVFSCSVMHEALHNHYTQKSLSLSPGK | 5.3 | 100
FM9-6 + Fc_hole long-acting GDF15 fusion protein (dimer) (Fc fusion) chain 1: APEAAGGPSVFLFPPKPKDTLMISRTPEVTCVVVDVSHEDPEVKFNWYVDGVEVHNAKTKPREEQYASTYRVVSVLTVLHQDWLNGKEYKCKVSNKALPAPIEKTISKAKGQPREPQVYTLPPSREEMTKNQVSLWCLVKGFYPSDIAVEWESNGQPENNYKTTPPVLDSDGSFFLYSKLTVDKSRWQQGNVFSCSVMHEALHNHYTQKSLSLSPGKGSEAAAKEAAAKEAAAKEAAAKEAAAKNGDHCPLGPGRCCRLHTVRASLEDLGWADWVLSPREVQVTMCIGACPSQFRAANMHAQIKTRLHRLKPDTVPAPCCVPASYNPMVLIQKTDTGVSLQTYDDLLAKDCHCI chain 2: APEAAGGPSVFLFPPKPKDTLMISRTPEVTCVVVDVSHEDPEVKFNWYVDGVEVHNAKTKPREEQYASTYRVVSVLTVLHQDWLNGKEYKCKVSNKALPAPIEKTISKAKGQPREPQVYTLPPSREEMTKNQVSLSCAVKGFYPSDIAVEWESNGQPENNYKTTPPVLDSDGSFFLVSKLTVDKSRWQQGNVFSCSVMHEALHNHYTQKSLSLSPGK | 6.3 | 
